The target in experiment [1] is T1, ezrin phosphopeptide (PPV{pTyr}EPV (SEQ ID NO: 258)) (Homo sapiens, UniProt P15311).
T1 construct: made in house; host or cells: peptide: chemical (Fmoc) synthesis; SH2 domains: Escherichia coli BL21(DE3)
In words: Fluorescence polarization binding assay of purified Fes-SH2 variants with peptide pEZ. An excerpt:
Peptide were synthesized using 9-fluorenylmethoxycarbonyl chemistry with the Prelude peptide synthesizer (Gyros Protein Technologies, Inc., Tucson, AZ) on Rink amide MBHA resin (Novabiochem, London, GB). Each peptide N-terminus was functionalized with biotin through a linker composed of two F-aminocaproic acids (Bachem). N-hydroxysuccinimide-fluorescein was used for N-terminal fluorescein labeling of the synthesized Ezrin pTyr-peptide used in fluorescence polarization tests. All peptides were purified using C-18 reverse phase HPLC (Waters) and their identity was confirmed by mass spectrometry on an Orbitrap Elite (ThermoFisher). Phosphopeptides that were used in the study but not synthesized in house were from GenScript.
Fluorescence polarization assays were performed as previously described. Briefly, binding measurements were performed in FP buffer (25 mM HEPES pH 7.5, 100 mM NaCl, 1 mM DTT, 0.01 mg/ml BSA, 0.03% BRIJ-35) by mixing in a 96-well plate 25 nM FITC-labeled Ezrin pTyr-peptide with serial dilutions of Fes-SH2 variants ranging from 1 mM to 22 nM. Samples were equilibrated at room temperature for 30 minutes before reading plates on an HTS Multi-Mode Microplate Reader (Synergy Neo) using an excitation filter of 485 nm and an emission filter of 530 nm. Dissociation constants were determined with Prism (GraphPad Software Inc) using a one-site total binding model.
(Fluorescence polarisation rises when a labelled molecule tumbles more slowly, as on binding a larger partner.)

Another experiment relates to cancer cell signaling. The settings on record: expression of the autonomous domain; cited from earlier work.
The next experiment deals with QGVI{pTyr}SDLNLP (Homo sapiens, UniProt P26715). Nature of the experiment: Competitive ELISA, Ptn6_C variants. The format is binding. The method, then:
(§1) Competitive and non-competitive phage ELISAs were performed as previously described with minor modifications to the protocol. Peptide sequences used for these analyses can be found in Table 4.
(§2) Streptavidin (50 ng/well in TBS (50 mM Tris-HCl pH 8.0, 150 mM NaCl) was coated onto MAXISORP plates (Thermo Scientific). Phage binding was detected using HRP conjugated anti-M13 secondary antibody (1/2000 dilution, GE Healthcare) in TBS buffer containing 0.05% Tween-20 (TBT buffer). Phage binding was detected using the 3,3′,5,5′-tetramethylbenzidine (TMB) (Thermo Fisher Scientific) chromogenic substrate. Plates were read using a PowerWave XS microplate reader (BioTek).
(§3) Competitive phage-ELISAs were used to determine binding affinity of SH2 superbinders for their cognate target. ELISAs were performed as previously described, biotinylated and phosphorylated peptides were immobilized on plates at the concentration of 0.2 μM, and available binding sites on streptavidin were blocked by adding 25 μl/well of 50 μM D-biotin in TBS. […] Data were plotted using Prism 6 software (GraphPad Software Inc) and affinity of SH2 domains was inferred from determination of the half maximal inhibition concentration (IC50).
Peptides listed in Table 5 were used to assay for binding affinity of each corresponding SH2 domain.
For orientation: ELISA stands for enzyme-linked immunosorbent assay.

Experiment [2] deals with Ezrin peptide (PPV{pTyr}EPVS (SEQ ID NO: 257)) (Homo sapiens, UniProt P15311). In words: Competitive phage ELISA, Fes variants. The format is binding. The settings on record: IC50-based, fold over Fes wt. Here is the method: as §1, §2, §3
Experiment [3] deals with pMT peptide (EEPQ{pTyr}EEIPIY (SEQ ID NO: 181)). Nature of the experiment: Competitive phage ELISA, Src variants. The format is binding. The settings on record: IC50-based, fold over Src wt. The method, then:
as §1, §2, §3

The text below walks through data of patent publication US20260055143A1, “HIGH AFFINITY VARIANTS OF SH2 DOMAINS” (Axoiya Inc., priority 2023, published 2026).

For orientation: IC50 means the midpoint of a concentration-inhibition curve.

B1: wt: unmodified Fes SH2 domain, SEQ ID 21 (protein, listed as Homo sapiens)
chain: WYHGAIPRAEVAELLVHSGDFLVRESQGKQEYVLSVLWDGLPRHFIIQSLDNLYRLEGEGFPSIPLLIDHLLSTQQPLTKKSGVVLHRAV
For B1, the IC50 in experiment [1] (fluorescence polarization against the ezrin phosphopeptide) came to 1300 nM. Also, in experiment [1] (fold enhancement in apparent affinity over wt Fes SH2), the “Fold Change” value is 1.

B2: SuperSrc-SH2: SEQ ID 136: high affinity variant of the Src SH2 domain, BC loop SETVKGA (protein)
chain: MKIEEHHHHHHSSGKLGLNDIFEAQKIEWHESSGEDLYFQSGTTMDDYKDDDDKGGSDSIQAEEWYFGKITRRESERLLLNAENPRGTFLVRESETVKGAYALSVSDFDNAKGLNVKHYLIRKLDSGGFYITSRTQFNSLQQLVAYYSKHADGLCHRLTTVCPSR
For B2, the “effect on cancer cell signaling” value in the experiment on cancer cell signaling is reported as “dominant negative effect”.

B3: Ptn6_C^wt: wild-type PTN6_C SH2 domain, SEQ ID 59 (protein, listed as Homo sapiens)
chain: WYHGHMSGGQAETLLQAKGEPWTFLVRESLSQPGDFVLSVLSDQPKAGPGSPLRVTHIKVMCEGGRYTVGGLETFDSLTDLVEHFKKTGIEEASGAFVYLRQPY
B3: the change in affinity result with QGVI{pTyr}SDLNLP (with either the sSrc or sFes graft) is “no improvement in affinity”. In addition, the change in binding result in the experiment with QGVI{pTyr}SDLNLP (αA-2-Arg mutation alone) is “not sufficient to enhance the binding”.

B4: Fes^sSrc: SEQ ID 145: Fes SH2 domain with sSrc graft (protein)
chain: MKIEEHHHHHHSSGKLGLNDIFEAQKIEWHESSGEDLYFQSGTTMDDYKDDDDKGGSEVQKPLHEQLWYHGAIPRAEVAELLVHSGDFLVRESETVKGAYALSVLWDGLPRHFLIQSLDNLYRLEGEGFPSIPLLIDHLLSTQQPLTKKSGVVLHRAVPSR
For the molecule B4, in experiment [2], the “enhancement of affinity of the domain (times)” value is given as 650.

B5: Src^sFes: SEQ ID 167: Src SH2 domain with sFes graft (protein)
chain: MKIEEHHHHHHSSGKLGLNDIFEAQKIEWHESSGEDLYFQSGTTMDDYKDDDDKGGSDGIQAEEWYFGKITRRESERLLLNAENPRGTFLVREGQSQPDYVLSVSDFDNAKGLNVKHYIIRKLDSGGFYITSRTQFNSLQQLVAYYSKHADGLCHRLTTVCPSR
On to B5, for which the “enhancement of affinity of the domain (times)” value in experiment [3] was found to be 125.
